From the supplement of paper PMC5998384

Tests used:
HeLa Kyoto [1] = test: solubility in G1/S (NP-40 vs SDS abundance) (log2 ratio); higher = more soluble; conditions: cell cycle stage: G1/S
HeLa Kyoto [2] = test: solubility change mitosis vs G1/S (difference of NP-40 vs SDS log2 ratios) (log2 ratio difference); higher = more soluble in mitosis
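Throughout, for solubility change mitosis vs G1/S (difference of NP-40 vs SDS log2 ratios): synchronized HeLa Kyoto cells (double thymidine block for G1/S, nocodazole release for mitosis), protein amounts in NP-40 versus SDS lysates quantified by mass spectrometry, three biological replicates.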
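Throughout, for solubility in G1/S (NP-40 vs SDS abundance): HeLa Kyoto cells arrested at G1/S by double thymidine block, proteins quantified by TMT10plex mass spectrometry in mild NP-40 versus SDS extracts, three biological replicates.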

Chain of WWC1 (chain, as listed by the source): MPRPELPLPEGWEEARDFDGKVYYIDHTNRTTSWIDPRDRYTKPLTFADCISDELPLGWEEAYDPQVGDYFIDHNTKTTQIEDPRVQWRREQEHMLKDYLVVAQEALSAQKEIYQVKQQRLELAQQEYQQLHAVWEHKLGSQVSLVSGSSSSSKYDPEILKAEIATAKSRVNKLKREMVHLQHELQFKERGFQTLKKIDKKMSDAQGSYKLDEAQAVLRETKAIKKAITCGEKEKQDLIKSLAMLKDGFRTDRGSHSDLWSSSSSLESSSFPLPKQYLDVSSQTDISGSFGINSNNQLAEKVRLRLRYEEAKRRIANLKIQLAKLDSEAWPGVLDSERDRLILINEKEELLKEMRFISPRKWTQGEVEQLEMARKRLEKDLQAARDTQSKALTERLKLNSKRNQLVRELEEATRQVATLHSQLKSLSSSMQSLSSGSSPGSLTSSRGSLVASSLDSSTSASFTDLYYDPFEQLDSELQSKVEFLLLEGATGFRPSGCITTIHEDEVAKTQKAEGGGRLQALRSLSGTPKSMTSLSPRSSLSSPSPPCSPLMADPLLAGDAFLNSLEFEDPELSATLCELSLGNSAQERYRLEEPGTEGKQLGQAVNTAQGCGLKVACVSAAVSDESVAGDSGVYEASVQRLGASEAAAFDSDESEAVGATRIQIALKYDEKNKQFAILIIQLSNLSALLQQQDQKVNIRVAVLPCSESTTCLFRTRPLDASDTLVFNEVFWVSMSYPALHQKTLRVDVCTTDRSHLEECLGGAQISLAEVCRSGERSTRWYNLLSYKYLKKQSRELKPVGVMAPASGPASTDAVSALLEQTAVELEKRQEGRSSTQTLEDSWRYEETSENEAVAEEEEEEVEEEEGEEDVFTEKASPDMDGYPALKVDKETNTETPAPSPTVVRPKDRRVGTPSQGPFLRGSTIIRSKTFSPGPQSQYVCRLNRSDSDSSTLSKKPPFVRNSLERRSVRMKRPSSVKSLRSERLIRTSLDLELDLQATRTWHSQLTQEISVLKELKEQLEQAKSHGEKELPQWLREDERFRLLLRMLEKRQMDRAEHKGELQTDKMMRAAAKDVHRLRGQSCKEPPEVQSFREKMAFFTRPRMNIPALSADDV

Substance | solubility in G1/S (log2) (HeLa Kyoto [1]) | solubility change mitosis (log2) (HeLa Kyoto [2])
MSRRTRCEDLDELHYQDTDSDVPEQRDSKCKVKWTHEEDEQLRALVRQFGQQDWKFLASHFPNRTDQQCQYRWLRVLNPDLVKGPWTKEEDQKVIELVKKYGTKQWTLIAKHLKGRLGKQCRERWHNHLNPEVKKSCWTEEEDRIICEAHKVLGNRWAEIAKMLPGRTDNAVKNHWNSTIKRKVDTGGFLSESKDCKPPVYLLLELEDKDGLQSAQPTEGQGSLLTNWPSVPPTIKEEENSEEELAAATTSKEQEPIGTDLDAVRTPEPLEEFPKREDQEGSPPETSLPYKWVVEAANLLIPAVGSSLSEALDLIESDPDAWCDLSKFDLPEEPSAEDSINNSLVQLQASHQQQVLPPRQPSALVPSVTEYRLDGHTISDLSRSSRGELIPISPSTEVGGSGIGTPPSVLKRQRKRRVALSPVTENSTSLSFLDSCNSLTPKSTPVKTLPFSPSQFLNFWNKQDTLELESPSLTSTPVCSQKVVVTTPLHRDKTPLHQKHAAFVTPDQKYSMDNTPHTPTPFKNALEKYGPLKPLPQTPHLEEDLKEVLRSEAGIELIIEDDIRPEKQKRKPGLRRSPIKKVRKSLALDIVDEDVKLMMSTLPKSLSLPTTAPSNSSSLTLSGIKEDNSLLNQGFLQAKPEKAAVAQKPRSHFTTPAPMSSAWKTVACGGTRDQLFMQEKARQLLGRLKPSHTSRTLILS [MYBL2] | 0.219 | -0.187
MELENIVANTVLLKAREGGGGNRKGKSKKWRQMLQFPHISQCEELRLSLERDYHSLCERQPIGRLLFREFCATRPELSRCVAFLDGVAEYEVTPDDKRKACGRQLTQNFLSHTGPDLIPEVPRQLVTNCTQRLEQGPCKDLFQELTRLTHEYLSVAPFADYLDSIYFNRFLQWKWLERQPVTKNTFRQYRVLGKGGFGEVCACQVRATGKMYACKKLEKKRIKKRKGEAMALNEKQILEKVNSRFVVSLAYAYETKDALCLVLTLMNGGDLKFHIYHMGQAGFPEARAVFYAAEICCGLEDLHRERIVYRDLKPENILLDDHGHIRISDLGLAVHVPEGQTIKGRVGTVGYMAPEVVKNERYTFSPDWWALGCLLYEMIAGQSPFQQRKKKIKREEVERLVKEVPEEYSERFSPQARSLCSQLLCKDPAERLGCRGGSAREVKEHPLFKKLNFKRLGAGMLEPPFKPDPQAIYCKDVLDIEQFSTVKGVELEPTDQDFYQKFATGSVPIPWQNEMVETECFQELNVFGLDGSVPPDLDWKGQPPAPPKKGLLQRLFSRQDCCGNCSDSEEELPTRL [GRK6] | -0.123 | -0.198
MERLRDVRERLQAWERAFRRQRGRRPSQDDVEAAPEETRALYREYRTLKRTTGQAGGGLRSSESLPAAAEEAPEPRCWGPHLNRAATKSPQSTPGRSRQGSVPDYGQRLKANLKGTLQAGPALGRRPWPLGRASSKASTPKPPGTGPVPSFAEKVSDEPPQLPEPQPRPGRLQHLQASLSQRLGSLDPGWLQRCHSEVPDFLGAPKACRPDLGSEESQLLIPGESAVLGPGAGSQGPEASAFQEVSIRVGSPQPSSSGGEKRRWNEEPWESPAQVQQESSQAGPPSEGAGAVAVEEDPPGEPVQAQPPQPCSSPSNPRYHGLSPSSQARAGKAEGTAPLHIFPRLARHDRGNYVRLNMKQKHYVRGRALRSRLLRKQAWKQKWRKKGECFGGGGATVTTKESCFLNEQFDHWAAQCPRPASEEDTDAVGPEPLVPSPQPVPEVPSLDPTVLPLYSLGPSGQLAETPAEVFQALEQLGHQAFRPGQERAVMRILSGISTLLVLPTGAGKSLCYQLPALLYSRRSPCLTLVVSPLLSLMDDQVSGLPPCLKAACIHSGMTRKQRESVLQKIRAAQVHVLMLTPEALVGAGGLPPAAQLPPVAFACIDEAHCLSQWSHNFRPCYLRVCKVLRERMGVHCFLGLTATATRRTASDVAQHLAVAEEPDLHGPAPVPTNLHLSVSMDRDTDQALLTLLQGKRFQNLDSIIIYCNRREDTERIAALLRTCLHAAWVPGSGGRAPKTTAEAYHAGMCSRERRRVQRAFMQGQLRVVVATVAFGMGLDRPDVRAVLHLGLPPSFESYVQAVGRAGRDGQPAHCHLFLQPQGEDLRELRRHVHADSTDFLAVKRLVQRVFPACTCTCTRPPSEQEGAVGGERPVPKYPPQEAEQLSHQAAPGPRRVCMGHERALPIQLTVQALDMPEEAIETLLCYLELHPHHWLELLATTYTHCRLNCPGGPAQLQALAHRCPPLAVCLAQQLPEDPGQGSSSVEFDMVKLVDSMGWELASVRRALCQLQWDHEPRTGVRRGTGVLVEFSELAFHLRSPGDLTAEEKDQICDFLYGRVQARERQALARLRRTFQAFHSVAFPSCGPCLEQQDEERSTRLKDLLGRYFEEEEGQEPGGMEDAQGPEPGQARLQDWEDQVRCDIRQFLSLRPEEKFSSRAVARIFHGIGSPCYPAQVYGQDRRFWRKYLHLSFHALVGLATEELLQVAR [RECQL4] | -0.103 | 0.0659
WWC1 | -0.00567 | -0.4
MAEASSLGRQSPRVVSCLEHSLCPGEPGLQTTAVVSMGSGDHQFNLAEILSQNYSVRGECEEASRCPDKPKEELEKDFISQSNDMPFDELLALYGYEASDPISDRESEGGDVAPNLPDMTLDKEQIAKDLLSGEEEEETQSSADDLTPSVTSHEASDLFPNRSGSRFLADEDREPGSSASSDTEEDSLPANKCKKEIMVGPQFQADLSNLHLNRHCEKIYENEDQLLWDPSVLPEREVEEFLYRAVKRRWHEMAGPQLPEGEAVKDSEQALYELVKCNFNVEEALRRLRFNVKVIRDGLCAWSEEECRNFEHGFRVHGKNFHLIQANKVRTRSVGECVEYYYLWKKSERYDYFAQQTRLGRRKYVPSGTTDADQDLDGSDPDGPGRPRPEQDTLTGMRTDPLSVDGTAGGLDEPGVASDGLPSSEPGPCSFQQLDESPAVPLSHRPPALADPASYQPAVTAPEPDASPRLAVDFALPKELPLISSHVDLSGDPEETVAPAQVALSVTEFGLIGIGDVNPFLAAHPTCPAPGLHSEPLSHCNVMTC [MIER2] | 0.172 | -0.304
MSQKQEEENPAEETGEEKQDTQEKEGILPERAEEAKLKAKYPSLGQKPGGSDFLMKRLQKGQKYFDSGDYNMAKAKMKNKQLPSAGPDKNLVTGDHIPTPQDLPQRKSSLVTSKLAGGQVE [ENSA] | -0.789 | 0.654
MMLSRAKPAVGRGVQHTDKRKKKGRKIPKLEELLSKRDFTGAITLLEFKRHVGEEEEDTNLWIGYCAFHLGDYKRALEEYENATKEENCNSEVWVNLACTYFFLGMYKQAEAAGFKASKSRLQNRLLFHLAHKFNDEKKLMSFHQNLQDVTEDQLSLASIHYMRSHYQEAIDIYKRILLDNREYLALNVYVALCYYKLDYYDVSQEVLAVYLQQIPDSTIALNLKACNHFRLYNGRAAEAELKSLMDNASSSFEFAKELIRHNLVVFRGGEGALQVLPPLVDVIPEARLNLVIYYLRQDDVQEAYNLIKDLEPTTPQEYILKGVVNAALGQEMGSRDHMKIAQQFFQLVGGSASECDTIPGRQCMASCFFLLKQFDDVLIYLNSFKSYFYNDDIFNFNYAQAKAATGNTSEGEEAFLLIQSEKMKNDYIYLSWLARCYIMNKKPRLAWELYLKMETSGESFSLLQLIANDCYKMGQFYYSAKAFDVLERLDPNPEYWEGKRGACVGIFQMIIAGREPKETLREVLHLLRSTGNTQVEYMIRIMKKWAKENRVSI [TTC26] | -0.122 | -0.0547
MAAPTPARPVLTHLLVALFGMGSWAAVNGIWVELPVVVKELPEGWSLPSYVSVLVALGNLGLLVVTLWRRLAPGKDEQVPIRVVQVLGMVGTALLASLWHHVAPVAGQLHSVAFLALAFVLALACCASNVTFLPFLSHLPPRFLRSFFLGQGLSALLPCVLALVQGVGRLECPPAPINGTPGPPLDFLERFPASTFFWALTALLVASAAAFQGLLLLLPPPPSVPTGELGSGLQVGAPGAEEEVEESSPLQEPPSQAAGTTPGPDPKAYQLLSARSACLLGLLAATNALTNGVLPAVQSFSCLPYGRLAYHLAVVLGSAANPLACFLAMGVLCRSLAGLGGLSLLGVFCGGYLMALAVLSPCPPLVGTSAGVVLVVLSWVLCLGVFSYVKVAASSLLHGGGRPALLAAGVAIQVGSLLGAVAMFPPTSIYHVFHSRKDCADPCDS [SLC52A2] | -0.143 | 0.202
